Results taken from publication PMC9371921, “Strand annealing and motor driven activities of SMARCAL1 and ZRANB3 are stimulated by RAD51 and the paralog complex” (Nucleic Acids Research, 2022).

Legend:
ZRANB3 F47A = molecular target: T1, ZRANB3 F47A (human, UniProt Q5FWF4 1-1079, F47A); test: pull-down; ZRANB3 F→A variants and RAD51 (Supplementary Figure S4); the methods tell two set-ups (MBP-RAD51 on amylose resin with purified FLAG-ZRANB3; FLAG-ZRANB3 variants from Sf9 soluble extract on anti-FLAG resin with purified RAD51) and the text does not tell which was used for which variant; 100 mM NaCl, 1 h at 4°C; conditions: both partners purified
T1 construct: human ZRANB3 with F47A; construct as m2; also called F47A substitution mutant; source: Sf9, expressed and purified similarly as the wild type
T1 sequence (looked up): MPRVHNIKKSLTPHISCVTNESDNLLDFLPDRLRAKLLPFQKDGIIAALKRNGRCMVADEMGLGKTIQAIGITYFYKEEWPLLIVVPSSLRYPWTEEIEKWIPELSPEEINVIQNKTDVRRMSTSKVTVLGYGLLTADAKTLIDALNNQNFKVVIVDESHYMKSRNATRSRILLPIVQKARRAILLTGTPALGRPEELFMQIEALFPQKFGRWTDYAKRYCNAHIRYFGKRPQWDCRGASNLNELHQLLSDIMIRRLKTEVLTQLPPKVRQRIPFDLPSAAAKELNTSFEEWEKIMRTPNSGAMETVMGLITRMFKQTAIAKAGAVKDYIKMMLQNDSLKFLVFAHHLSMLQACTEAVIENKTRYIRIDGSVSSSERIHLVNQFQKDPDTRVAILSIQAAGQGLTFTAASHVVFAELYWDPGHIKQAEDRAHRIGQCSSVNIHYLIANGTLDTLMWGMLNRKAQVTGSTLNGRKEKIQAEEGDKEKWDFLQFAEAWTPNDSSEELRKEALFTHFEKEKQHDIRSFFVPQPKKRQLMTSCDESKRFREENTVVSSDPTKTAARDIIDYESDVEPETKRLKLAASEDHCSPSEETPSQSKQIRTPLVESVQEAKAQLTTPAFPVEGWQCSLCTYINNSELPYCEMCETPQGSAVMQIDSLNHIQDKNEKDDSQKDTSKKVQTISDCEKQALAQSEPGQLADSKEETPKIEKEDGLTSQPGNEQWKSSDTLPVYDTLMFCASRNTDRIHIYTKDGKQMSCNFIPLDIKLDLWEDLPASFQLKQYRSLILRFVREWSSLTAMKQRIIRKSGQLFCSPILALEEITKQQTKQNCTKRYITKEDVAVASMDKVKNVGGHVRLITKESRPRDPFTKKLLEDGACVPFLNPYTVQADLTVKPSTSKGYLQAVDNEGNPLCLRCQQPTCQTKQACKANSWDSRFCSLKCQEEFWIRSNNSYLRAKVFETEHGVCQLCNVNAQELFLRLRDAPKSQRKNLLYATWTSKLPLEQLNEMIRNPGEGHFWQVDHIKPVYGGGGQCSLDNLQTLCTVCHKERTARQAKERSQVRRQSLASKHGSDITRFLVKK

FLAG-ZRANB3 = molecular target: T2, FLAG-ZRANB3 (human, UniProt Q5FWF4 1-1079); test: pull-down; MBP-RAD51 (bait) from bacterial soluble extract bound to amylose resin and washed; purified FLAG-SMARCAL1, FLAG-ZRANB3 or FLAG-BCDX2 (1 μg, prey) in 150 μl IP buffer (25 mM Tris-HCl pH 7.5, 100 mM NaCl, 3 mM EDTA, 0.5 mM DTT, BSA, 10% glycerol), 1 h at 4°C; eluted with maltose; Western blot with anti-MBP and anti-FLAG; conditions: both partners purified
T2 construct: also called ZRANB3 WT
T2 sequence (looked up): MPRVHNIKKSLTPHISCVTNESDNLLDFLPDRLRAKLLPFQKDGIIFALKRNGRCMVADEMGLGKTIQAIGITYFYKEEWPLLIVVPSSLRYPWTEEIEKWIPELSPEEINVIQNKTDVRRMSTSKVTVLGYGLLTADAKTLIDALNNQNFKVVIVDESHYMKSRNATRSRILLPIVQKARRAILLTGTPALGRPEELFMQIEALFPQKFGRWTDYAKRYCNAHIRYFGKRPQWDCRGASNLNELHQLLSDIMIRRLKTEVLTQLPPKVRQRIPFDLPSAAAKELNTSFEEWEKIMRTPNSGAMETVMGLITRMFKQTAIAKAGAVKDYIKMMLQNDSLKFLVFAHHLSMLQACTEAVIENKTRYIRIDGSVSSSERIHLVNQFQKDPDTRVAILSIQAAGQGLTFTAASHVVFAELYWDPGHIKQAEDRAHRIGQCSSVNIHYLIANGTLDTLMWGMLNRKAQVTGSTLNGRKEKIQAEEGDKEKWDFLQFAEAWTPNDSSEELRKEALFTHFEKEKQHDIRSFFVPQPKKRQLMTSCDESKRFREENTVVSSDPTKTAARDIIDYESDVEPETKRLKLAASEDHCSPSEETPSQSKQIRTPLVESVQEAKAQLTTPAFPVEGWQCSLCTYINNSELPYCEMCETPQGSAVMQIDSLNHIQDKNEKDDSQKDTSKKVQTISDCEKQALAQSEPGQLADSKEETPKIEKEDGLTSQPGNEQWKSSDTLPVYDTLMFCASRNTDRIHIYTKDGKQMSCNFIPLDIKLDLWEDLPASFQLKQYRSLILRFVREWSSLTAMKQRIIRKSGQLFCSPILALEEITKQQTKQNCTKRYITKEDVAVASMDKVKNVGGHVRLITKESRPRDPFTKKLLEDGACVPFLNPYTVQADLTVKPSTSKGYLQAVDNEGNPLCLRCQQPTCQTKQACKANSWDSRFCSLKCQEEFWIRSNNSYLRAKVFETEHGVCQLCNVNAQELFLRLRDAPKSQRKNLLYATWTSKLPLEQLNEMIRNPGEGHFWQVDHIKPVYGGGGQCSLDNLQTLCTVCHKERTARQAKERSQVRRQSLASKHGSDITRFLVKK

binding result (ZRANB3 F47A): binds
binding result (FLAG-ZRANB3): binds
B1: MBP-RAD51 (natural protein, human, UniProt Q06609 1-339, looked up)
chain: MAMQMQLEANADTSVEEESFGPQPISRLEQCGINANDVKKLEEAGFHTVEAVAYAPKKELINIKGISEAKADKILAEAAKLVPMGFTTATEFHQRRSEIIQITTGSKELDKLLQGGIETGSITEMFGEFRTGKTQICHTLAVTCQLPIDRGGGEGKAMYIDTEGTFRPERLLAVAERYGLSGSDVLDNVAYARAFNTDHQTQLLYQASAMMVESRYALLIVDSATALYRTDYSGRGELSARQMHLARFLRMLLRLADEFGVAVVITNQVVAQVDGAAMFAADPKKPIGGNIIAHASTTRLYLRKGRGETRICKIYDSPCLPEAEAMFAINADGVGDAKD
notes: In the pull-downs the MBP tag was kept; the RAD51 of the DNA annealing assays was the same construct with the MBP cut off by PreScission protease and purified on HiTrap Q; not shown: MBP, N-terminal, kept
